Measurements: patent US20100172907A1 (Hoffmann-La Roche, published 2010)
Groups on a side chain read outwards from the residue. No end group written: not given here. NSMP = not defined here

T1: BSA-conjugated Aβ heptapeptide AEFRHDC (C-terminal Cys coupled to NSMP-activated BSA)
T1 construct: also called Peptide 2-7
T1 peptide: AEFRHDC

T2: BSA-conjugated Aβ heptapeptide LVFFAEC (reading uncertain; also: BSA conjugate)
T2 construct: also called Peptide 17-22
T2 peptide: LVFFAEC([NSMP-BSA])

T3: BSA-conjugated Aβ heptapeptide VFFAEDC (C-terminal Cys coupled to NSMP-activated BSA)
T3 construct: also called Peptide 18-23
T3 peptide: VFFAEDC

T4: BSA-conjugated Aβ heptapeptide FFAEDVC (C-terminal Cys coupled to NSMP-activated BSA)
T4 construct: also called Peptide 19-24
T4 peptide: FFAEDVC


Assays:
[1] = target: T1, BSA-conjugated Aβ heptapeptide AEFRHDC; assay: ELISA
Experimental: (§1) 50 μl of NSMP activated BSA (6.7 mg/ml) was diluted with 50 μl of PBS, 0.1% sodium azide and 10 μl of peptide solution (1 mM in DMSO) was added. As negative control activated BSA was mock-treated without peptide addition. After 4 hrs at room temperature the reaction was stopped by addition of 10 μl of 10 mM Cystein. An aliquot of the conjugate reaction mixture was diluted 1:100 with 0.1M sodium bicarbonate buffer and immediately filled into the wells (100 μl) of ELISA plates (Nunc Immuno-Plate). After standing 16 hrs at 4° C. 100 μl blocking buffer (as above) was added to each well and incubated for another 30 minutes. The plates were washed with 2×300 μl/well TBST (as above) and filled with 100 μl antibody at 10 μg/ml or 2 μg/ml in blocking buffer. The plates were kept 16 hours at 4° C. and washed with 2×300 μl TBST. 100 μl/well HRP-conjugated anti-human Ig H+L (Pierce, dilution 1:1000 with blocking buffer) was added and incubated for 1 hour at ambient temperature. The plates were washed with 3×300 μl/well TBST. Colour development was started by addition of 100 μl tetra-methyl benzidine/hydrogen peroxide reagent.

[2] = target: T2, BSA-conjugated Aβ heptapeptide LVFFAEC; assay: ELISA
Experimental: as §1

[3] = target: T3, BSA-conjugated Aβ heptapeptide VFFAEDC; assay: ELISA
Experimental: as §1

[4] = target: T4, BSA-conjugated Aβ heptapeptide FFAEDVC; assay: ELISA
Experimental: as §1

[5] = target: T5, human Aβ (1-40) peptide (human); assay: SPR, immobilized fibers;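 note: biacore SPR using in vitro grown Aβ1-40 or Aβ1-42 fibrils immobilized on the chip with Fab analytes, KD from koff/kon fits or equilibrium isotherms based on total Fab concentration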
T5 construct: also called Aβ1-40 fibers

[6] = target: T6, Aβ (1-42) peptide (human); assay: SPR, immobilized fibers;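 note: biacore SPR using in vitro grown Aβ1-40 or Aβ1-42 fibrils immobilized on the chip with Fab analytes, KD from koff/kon fits or equilibrium isotherms based on total Fab concentration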
T6 construct: also called Aβ1-42 fibers; Aβ4
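Throughout, for OD ratio 17-22/BSA: ELISA of antibody at 10 or 2 µg/ml binding plate-coated BSA–peptide conjugates, detected with HRP anti-human Ig and TMB colour, mock-treated BSA without peptide as negative control.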
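Throughout, for OD ratio 18-23/BSA: ELISA of antibody at 10 or 2 µg/ml binding plate-coated BSA–peptide conjugates, detected with HRP anti-human Ig and TMB colour, mock-treated BSA without peptide as negative control.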
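Throughout, for OD ratio 2-7/BSA: ELISA of antibody at 10 or 2 µg/ml binding plate-coated BSA–peptide conjugates, detected with HRP anti-human Ig and TMB colour, mock-treated BSA without peptide as negative control.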
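Throughout, for Peptide-ratio 17-22/2-7: ELISA of antibody at 10 or 2 µg/ml binding plate-coated BSA–peptide conjugates, detected with HRP anti-human Ig and TMB colour, mock-treated BSA without peptide as negative control.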

Binder | OD ratio 2-7/BSA [1] | OD ratio 17-22/BSA [2] | Peptide-ratio 17-22/2-7 [2] | OD ratio 18-23/BSA [3] | Peptide-ratio 18-23/2-7 [3] | OD ratio 19-24/BSA [4] | Peptide-ratio 19-24/2-7 [4] | Kd [5] | Kd [6]
MS-Roche #3.2.H2 Fab (Fab, V domains shown) VH: QVQLVESGGGLVQPGGSLRLSCAASGFTFSSYAMSWVRQAPGKGLEWVSAISQRGQFTYYADSVKGRFTISRDNSKNTLYLQMNSLRAEDTAVYYCARLTHYARYYRYFDVWGQGTLVTVSS VL: not shown | 26 | 12 | 0.46 | 23 | 0.88 | 20 | 0.77 | 5.2 nM | 1.1 nM
MS-Roche #3.4.H1 Fab (Fab, V domains shown) VH: QVQLVESGGGLVQPGGSLRLSCAASGFTFSSYAMSWVRQAPGKGLEWVSAISETSIRKYYADSVKGRFTISRDNSKNTLYLQMNSLRAEDTAVYYCARLTHYARYYRYFDVWGQGTLVTVSS VL: not shown | 27 | 2 | 0.07 | 8 | 0.3 | 2 | 0.07 | 13.5 nM | 14 nM
MS-Roche #3.3.H1 Fab (Fab, V domains shown) VH: QVQLVESGGGLVQPGGSLRLSCAASGFTFSSYAMSWVRQAPGKGLEWVSVISEKSRFIYYADSVKGRFTISRDNSKNTLYLQMNSLRAEDTAVYYCARLTHYARYYRYFDVWGQGTLVTVSS VL: not shown | 23 | 4 | 0.17 | 12 | 0.52 | 8 | 0.35 | 17.1 nM | 19.4 nM
MS-Roche #3.4.H3 Fab (Fab, V domains shown) VH: QVQLVESGGGLVQPGGSLRLSCAASGFTFSSYAMSWVRQAPGKGLEWVSVISQTGRKIYYADSVKGRFTISRDNSKNTLYLQMNSLRAEDTAVYYCARLTHYARYYRYFDVWGQGTLVTVSS VL: not shown | 22 | 9 | 0.41 | 17 | 0.77 | 11 | 0.5 | 6.7 nM | 8.4 nM
MS-Roche #3.3.H3 Fab (Fab, V domains shown) VH: QVQLVESGGGLVQPGGSLRLSCAASGFTFSSYAMSWVRQAPGKGLEWVSAISQNGFHIYYADSVKGRFTISRDNSKNTLYLQMNSLRAEDTAVYYCARLTHYARYYRYFDVWGQGTLVTVSS VL: not shown | 31 | 2 | 0.06 | 5 | 0.16 | 2 | 0.06 | 1.4 nM | 3.3 nM
MS-Roche #7.2.L1 Fab (Fab, V domains shown) VH: not shown VL: DIVLTQSPATLSLSPGERATLSCRASQYVDRTYLAWYQQKPGQAPRLLIYGASSRATGVPARFSGSGSGTDFTLTISSLEPEDFATYYCQQIYSFPHTFGQGTKVEIKR | 24 | 14 | 0.57 | 16 | 0.68 | 11 | 0.45 | 13.3 nM | 12.7 nM
MS-Roche #7.9.H3 Fab (Fab, V domains shown, assembled) VH: QVQLVESGGGLVQPGGSLRLSCAASGFTFSSYAMSWVRQAPGKGLEWVSAINYQGNRKYYADSVKGRFTISRDNSKNTLYLQMNSLRAEDTAVYYCARGKGNTHKPYGYVRYFDVWGQGTLVTVSS VL: DIVLTQSPATLSLSPGERATLSCRASQSVSSSYLAWYQQKPGQAPRLLIYGASSRATGVPARFSGSGSGTDFTLTISSLEPEDFATYYCLQIYNMPITFGQGTKVEIKR | 35 | 11 | 0.31 | 20 | 0.57 | 9 | 0.27 | 4.2 nM | 2.8 nM
MS-Roche #7.9.H2 Fab (Fab, V domains shown, assembled) VH: QVQLVESGGGLVQPGGSLRLSCAASGFTFSSYAMSWVRQAPGKGLEWVSAINADGNRKYYADSVKGRFTISRDNSKNTLYLQMNSLRAEDTAVYYCARGKGNTHKPYGYVRYFDVWGQGTLVTVSS VL: DIVLTQSPATLSLSPGERATLSCRASQSVSSSYLAWYQQKPGQAPRLLIYGASSRATGVPARFSGSGSGTDFTLTISSLEPEDFATYYCLQIYNMPITFGQGTKVEIKR | 35 | 3 | 0.08 | 6 | 0.16 | 8 | 0.23 | 5 nM | 5.7 nM
MS-Roche #7.11.H2 Fab (Fab, V domains shown) VH: QVQLVESGGGLVQPGGSLRLSCAASGFTFSSYAMSWVRQAPGKGLEWVSAINANGYKKYYADSVKGRFTISRDNSKNTLYLQMNSLRAEDTAVYYCARGKGNTHKPYGYVRYFDVWGQGTLVTVSS VL: DIVLTQSPATLSLSPGERATLSCRASQSVSSSYLAWYQQKPGQAPRLLIYGASSRATGVPARFSGSGSGTDFTLTISSLEPEDFATYYCQQVYSPPHTFGQGTKVEIKR | 34 | 10 | 0.29 | 12 | 0.36 | 14 | 0.41 | 0.3 nM | 0.3 nM
MS-Roche #7.9.H4 Fab (Fab, V domains shown, assembled) VH: QVQLVESGGGLVQPGGSLRLSCAASGFTFSSYAMSWVRQAPGKGLEWVSAINAVGMKKFYADSVKGRFTISRDNSKNTLYLQMNSLRAEDTAVYYCARGKGNTHKPYGYVRYFDVWGQGTLVTVSS VL: DIVLTQSPATLSLSPGERATLSCRASQSVSSSYLAWYQQKPGQAPRLLIYGASSRATGVPARFSGSGSGTDFTLTISSLEPEDFATYYCLQIYNMPITFGQGTKVEIKR | 30 | 10 | 0.32 | 15 | 0.49 | 7 | 0.22 | 4.8 nM | 4.2 nM
MS-Roche #7.11.H1 Fab (Fab, V domains shown) VH: QVQLVESGGGLVQPGGSLRLSCAASGFTFSSYAMSWVRQAPGKGLEWVSGINAAGFRTYYADSVKGRFTISRDNSKNTLYLQMNSLRAEDTAVYYCARGKGNTHKPYGYVRYFDVWGQGTLVTVSS VL: DIVLTQSPATLSLSPGERATLSCRASQSVSSSYLAWYQQKPGQAPRLLIYGASSRATGVPARFSGSGSGTDFTLTISSLEPEDFATYYCQQVYSPPHTFGQGTKVEIKR | 31 | 8 | 0.25 | 9 | 0.29 | 8 | 0.25 | 12.7 nM | 6.7 nM
MS-Roche #7.11 Fab (Fab, V domains shown) VH: not shown VL: DIVLTQSPATLSLSPGERATLSCRASQSVSSSYLAWYQQKPGQAPRLLIYGASSRATGVPARFSGSGSGTDFTLTISSLEPEDFATYYCQQVYSPPHTFGQGTKVEIKR | 37 | 11 | 0.3 | 15 | 0.41 | 9 | 0.24 | 22 nM | 74 nM
MS-Roche #7.4.H2 Fab (Fab, V domains shown) VH: QVQLVESGGGLVQPGGSLRLSCAASGFTFSSYAMSWVRQAPGKGLEWVSAINYNGARIYYADSVKGRFTISRDNSKNTLYLQMNSLRAEDTAVYYCARGKGNTHKPYGYVRYFDVWGQGTLVTVSS VL: not shown | 36 | 17 | 0.47 | 20 | 0.56 | 16 | 0.46 | 9.9 nM | 6.2 nM
